Experimental data published in IntAct's records for PubMed 16648636.

B1: Monothiol glutaredoxin-3 (Saccharomyces cerevisiae), Q03835 (parent)
chain: MPVIEINDQEQFTYLTTTAAGDKLIVLYFHTSWAEPCKALKQVFEAISNEPSNSNVSFLSIDADENSEISELFEISAVPYFIIIHKGTILKELSGADPKEYVSLLEDCKNSVNSGSSQTHTMENANVNEGSHNDEDDDDEEEEEETEEQINARLTKLVNAAPVMLFMKGSPSEPKCGFSRQLVGILREHQVRFGFFDILRDESVRQNLKKFSEWPTFPQLYINGEFQGGLDIIKESLEEDPDFLQHALQS
partner: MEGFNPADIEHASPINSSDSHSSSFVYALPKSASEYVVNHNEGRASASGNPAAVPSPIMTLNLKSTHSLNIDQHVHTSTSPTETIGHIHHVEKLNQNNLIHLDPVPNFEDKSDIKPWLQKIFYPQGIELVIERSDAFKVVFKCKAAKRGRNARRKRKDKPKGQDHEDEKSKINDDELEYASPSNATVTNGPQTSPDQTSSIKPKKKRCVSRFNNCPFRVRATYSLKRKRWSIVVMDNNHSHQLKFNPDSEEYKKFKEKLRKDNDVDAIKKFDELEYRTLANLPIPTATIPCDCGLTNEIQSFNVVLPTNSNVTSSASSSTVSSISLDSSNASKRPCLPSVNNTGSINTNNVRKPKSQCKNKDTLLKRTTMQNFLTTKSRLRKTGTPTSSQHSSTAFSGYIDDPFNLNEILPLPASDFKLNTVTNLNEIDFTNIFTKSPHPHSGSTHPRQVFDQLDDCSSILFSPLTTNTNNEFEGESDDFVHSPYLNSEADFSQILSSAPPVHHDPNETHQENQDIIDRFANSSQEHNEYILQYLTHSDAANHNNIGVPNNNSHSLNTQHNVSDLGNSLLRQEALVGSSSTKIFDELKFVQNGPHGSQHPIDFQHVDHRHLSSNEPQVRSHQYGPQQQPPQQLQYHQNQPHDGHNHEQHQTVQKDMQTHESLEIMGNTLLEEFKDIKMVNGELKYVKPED
B2: Monothiol glutaredoxin-4 (Saccharomyces cerevisiae), P32642 (parent)
chain: MTVVEIKSQDQFTQLTTTNAANKLIVLYFKAQWADPCKTMSQVLEAVSEKVRQEDVRFLSIDADEHPEISDLFEIAAVPYFVFIQNGTIVKEISAADPKEFVKSLEILSNASASLANNAKGPKSTSDEESSGSSDDEEDETEEEINARLVKLVQAAPVMLFMKGSPSEPKCGFSRQLVGILREHQIRFGFFDILRDENVRQSLKKFSDWPTFPQLYINGEFQGGLDIIKESIEEDPEYFQHALQ
partner: B1 partner

Variants of: B1
Settings: with aft1_yeast AFT1, P22149

Variant	effect of a mutation on the interaction
MPVIEINDQEQFTYLTTTAAGDKLIVLYFHTSWAEPCKALKQVFEAISNEPSNSNVSFLSIDADENSEISELFEISAVPYFIIIHKGTILKELSGADPKEYVSLLEDCKNSVNSGSSQTHTMENANVNEGSHNDEDDDDEEEEEETEEQINARLTKLVNAAPVMLFMKGSPSEPKSGFSRQLVGILREHQVRFGFFDILRDESVRQNLKKFSEWPTFPQLYINGEFQGGLDIIKESLEEDPDFLQHALQS [C176S]	disrupting interaction

Variants of: B2
Settings: with aft1_yeast AFT1, P22149

Variant	effect of a mutation on the interaction
MTVVEIKSQDQFTQLTTTNAANKLIVLYFKAQWADPCKTMSQVLEAVSEKVRQEDVRFLSIDADEHPEISDLFEIAAVPYFVFIQNGTIVKEISAADPKEFVKSLEILSNASASLANNAKGPKSTSDEESSGSSDDEEDETEEEINARLVKLVQAAPVMLFMKGSPSEPKSGFSRQLVGILREHQIRFGFFDILRDENVRQSLKKFSDWPTFPQLYINGEFQGGLDIIKESIEEDPEYFQHALQ [C171S]	disrupting interaction
